In PMC8718881, “Engineering of the Recombinant Expression and PEGylation Efficiency of the Therapeutic Enzyme Human Thymidine Phosphorylase” (Frontiers in Bioengineering and Biotechnology, 2021):

Molecular target: the molecule itself
Assay: SEC; analytical SEC; purified protein about 2 mg/ml in PBS; TSKgel G4000SWxl; mobile phase 90% phosphate buffer (50 mM sodium phosphate, 200 mM NaCl, pH 7.2) and 10% ethanol; BioRad gel filtration standard as markers

B1: HsTP^218 (human thymidine phosphorylase truncated before K34, C-terminal His6-tag) (enzyme)
chain: MGKQLPELIRMKRDGGRLSEADIRGFVAAVVNGSAQGAQIGAMLMAIRLRGMDLEETSVLTQALAQSGQQLEWPEAWRQQLVDKHSTGGVGDKVSLVLAPALAACGCKVPMISGRGLGHTGGTLDKLESIPGFNVIQSPEQMQVLLDQAGCCIVGQSEQLVPADGILYAARDVTATVDSLPLITASILSKKLVEGLSALVVDVKFGGAAVFPNQEQARELAKTLVGVGASLGLRVAAALTAMDKPLGRCVGHALEVEEALLCMDGAGPPDLRDLVTTLGGALLWLSGHAGTQAQGAARVAAALDDGSALGRFERMLAAQGVDPGLARALCSGSPAERRQLLPRAREQEELLAPADGTVELVRALPLALVLHELGAGRSRAGEPLRLGVGAELLVDVGQRLRRGTPWLRVHRDGPALSGPQSRALQEALVLSDRAPFAAPSPFAELVLPPQQ
notes: starting methionine and a glycine scar residue from cloning with the NcoI site; they precede K34 (M1-G2-K3-Q4); human thymidine phosphorylase (HsTP, TYMP), lacking the first thirty-three residues of the full-length protein; starts at K34, full-length numbering of UniProt P19971; Codon-optimized synthetic gene in pET28a; No cleavage of the His6-tag is described; also called expression-optimized …
For B1, the “stoichiometry N” value was 2.
